Here are results for 16 molecules from US20220064312A1 (SHIONOGI, published 2022).

Positions count from the first letter of the chain named. In names and notes the source's numbering stands. Where two headings read alike, the source gives them in different places.

The target of assay [1] is T1, human CCR8 (human, UniProt P51685 1-355). Kind of assay: cell-based or functional assay.
Assay [2] concerns the target T1, human CCR8. Kind of assay: cell-based or functional assay. This is another data set of the same source.
Another assay has as its target T2, human CCR4 (human, UniProt P51679 1-360).
T2 construct: also called hCCR4
T2 sequence: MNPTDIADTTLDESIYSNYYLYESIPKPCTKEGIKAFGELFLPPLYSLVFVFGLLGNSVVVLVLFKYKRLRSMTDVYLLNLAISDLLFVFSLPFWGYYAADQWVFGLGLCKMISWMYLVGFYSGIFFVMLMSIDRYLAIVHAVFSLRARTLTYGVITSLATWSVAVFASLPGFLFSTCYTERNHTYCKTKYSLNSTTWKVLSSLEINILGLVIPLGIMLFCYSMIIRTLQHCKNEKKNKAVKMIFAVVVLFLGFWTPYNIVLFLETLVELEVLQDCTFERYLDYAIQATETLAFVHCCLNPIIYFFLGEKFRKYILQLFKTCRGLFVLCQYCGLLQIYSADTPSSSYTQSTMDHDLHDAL
Kind of assay: flow cytometry, transfected Expi293 cells. (A flow cytometer gives signals particle by particle.)

For the next assay, the target named is T3, N-ter hCCR4-hCCR8 (human).
T3 construct: chimera on Expi293 cells; remaining hCCR8 ranges derived from the stated swapped ranges and the 355-residue length; also called N-terminal region human CCR4-substituted human CCR8
T3 chain: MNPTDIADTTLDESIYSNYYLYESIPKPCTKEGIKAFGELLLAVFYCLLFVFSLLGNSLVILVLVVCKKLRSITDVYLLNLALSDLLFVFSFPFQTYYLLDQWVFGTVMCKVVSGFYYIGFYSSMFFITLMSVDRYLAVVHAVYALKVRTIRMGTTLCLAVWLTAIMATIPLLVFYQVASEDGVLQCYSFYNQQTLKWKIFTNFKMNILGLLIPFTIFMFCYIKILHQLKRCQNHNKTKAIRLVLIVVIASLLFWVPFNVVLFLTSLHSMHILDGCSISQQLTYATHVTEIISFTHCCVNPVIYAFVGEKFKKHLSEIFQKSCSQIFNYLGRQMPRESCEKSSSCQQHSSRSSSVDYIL
Kind of assay: flow cytometry, transfected Expi293 cells.

A further assay has as its target T4, mouse CCR8 (mouse, UniProt P56484 1-353).
T4 construct: also called mCCR8
T4 sequence: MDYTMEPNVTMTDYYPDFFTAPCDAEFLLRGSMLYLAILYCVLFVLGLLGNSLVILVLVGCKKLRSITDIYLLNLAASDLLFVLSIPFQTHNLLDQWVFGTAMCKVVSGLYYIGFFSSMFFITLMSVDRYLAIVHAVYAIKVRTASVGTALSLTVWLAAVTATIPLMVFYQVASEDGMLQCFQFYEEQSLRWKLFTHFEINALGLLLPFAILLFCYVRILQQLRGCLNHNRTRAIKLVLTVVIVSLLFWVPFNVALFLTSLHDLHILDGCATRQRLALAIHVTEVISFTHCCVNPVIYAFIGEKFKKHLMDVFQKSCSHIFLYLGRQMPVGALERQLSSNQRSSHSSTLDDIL
Kind of assay: flow cytometry, transfected Expi293 cells.

In another assay the target is hCCR8 (Y17A) (human, UniProt P51685 1-355). Briefly: flow cytometry, transfected Expi293 cells.
Chain of hCCR8 (Y17A) (P51685 whole entry Y17A): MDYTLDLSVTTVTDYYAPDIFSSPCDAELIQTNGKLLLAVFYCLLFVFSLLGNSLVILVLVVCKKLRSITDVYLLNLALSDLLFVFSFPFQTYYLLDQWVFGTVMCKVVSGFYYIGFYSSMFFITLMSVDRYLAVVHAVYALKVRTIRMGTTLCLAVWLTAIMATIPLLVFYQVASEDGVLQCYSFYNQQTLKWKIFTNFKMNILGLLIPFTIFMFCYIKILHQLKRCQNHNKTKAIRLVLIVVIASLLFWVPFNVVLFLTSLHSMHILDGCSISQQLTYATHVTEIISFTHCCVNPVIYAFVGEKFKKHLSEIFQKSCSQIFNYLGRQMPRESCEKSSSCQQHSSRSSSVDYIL
The target in the next assay is T5, loop2 hCCR4-hCCR8 (human, UniProt P51685 1-355).
T5 construct: chimera on Expi293 cells; hCCR8 ranges derived; also called loop2-human CCR4-substituted human CCR8
Briefly: flow cytometry, transfected Expi293 cells; Δ = significantly reduced vs hCCR8.

Assay [3] deals with T6, loop1 hCCR4-hCCR8 (human, UniProt P51685 1-355).
T6 construct: chimera on Expi293 cells; hCCR8 ranges derived; also called loop 1-human CCR4-substituted human CCR8
The assay is described as above.

Assay [4] addresses T1, human CCR8. Kind of assay: cell-based or functional assay. This is another data set of the same source.
For assay [5], the target named is T6, loop1 hCCR4-hCCR8. Briefly: flow cytometry, transfected Expi293 cells.
Assay [6] concerns the target T1, human CCR8. Kind of assay: cell-based or functional assay. The source holds these as a separate data set.

T1 sequence (P51685 whole entry): as the sequence (P51685 whole entry Y17A) above, with A17Y counted along it

B1: h10A11 (IGKV3-20/IGHV3-15 T94R) (antibody, V domains shown)
VH: EVQLVESGGALVKPGGSLRLSCAASGFTFSTYALYWVRQAPGKGLEWVGRIRSKSNNYATYYADSVKDRFTISRDDSKNTLYLQMNSLKTEDTAVYYCTRARFYYSDYGYAMDYWGQGTLVTVSS
VL: EIVLTQSPGTLSLSPGERATLSCRSSKSLLHSNGNTYLYWYQQKPGQAPRLLIYRMSNLASGIPDRFSGSGSGTDFTLTISRLEPEDFAVYYCMQHLEYPLTFGQGTKVEIKR
Take B1: the “IC50 (nM), Ca2+ influx by 200 nM hCCL1” value in the assay with human CCR8 [1] worked out at 0.16 nM.

B2: h10A11 (IGKV2-28/IGHV3-73) (antibody, V domains shown)
VH: B1 VH with A10G, K13Q, R19K, T28A, S30N, P41S, L81A
VL: DIVMTQSPLSLPVTPGEPASISCRSSKSLLHSNGNTYLYWYLQKPGQSPQLLIYRMSNLASGVPDRFSGSGSGTDFTLKISRVEAEDVGVYYCMQHLEYPLTFGQGTKVEIKR
As to B2, in the assay with human CCR8 [1], the “IC50 (nM), Ca2+ influx by 200 nM hCCL1” value was found to be 0.2 nM.

B3: h10A11 (IGKV1-39/IGHV3-73) (antibody, V domains shown)
VH: B1 VH with A10G, K13Q, R19K, T28A, S30N, P41S, L81A
VL: DIQMTQSPSSLSASVGDRVTITCRSSKSLLHSNGNTYLYWYQQKPGKAPKLLIYRMSNLASGVPSRFSGSGSGTDFTLTISSLQPEDFATYYCMQHLEYPLTFGQGTKLEIKR
As to B3, the “IC50 (nM), Ca2+ influx by 200 nM hCCL1” value with human CCR8 [1] was 0.16 nM.

B4: h10A11 IGKV3-20 N53Q, G29R/IGHV3-15 T94R (antibody, V domains shown)
VH: B1 VH
VL: B1 VL with G34R, N58Q
Consider B4, for which, in the assay with human CCR8 [2], the “IC50 (nM), Ca2+ influx by 200 nM hCCL1” value was determined as 0.19 nM.

B5: h10A11 IGKV4-1 N53Q, G29R/IGHV3-15 T94R (antibody, V domains shown)
VH: B1 VH
VL: DIVMTQSPDSLAVSLGERATINCRSSKSLLHSNRNTYLYWYQQKPGQPPKLLIYRMSQLASGVPDRFSGSGSGTDFTLTISSLQAEDVAVYYCMQHLEYPLTFGQGTKLEIKR
B5: the “IC50 (nM), Ca2+ influx by 200 nM hCCL1” value with human CCR8 [2] is 0.12 nM.

B6: h10A11 IGKV3-20 N53Q, G29L/IGHV3-15 T94R (antibody, V domains shown)
VH: B1 VH
VL: B1 VL with G34L, N58Q
Consider B6, for which the “IC50 (nM), Ca2+ influx by 200 nM hCCL1” value in the assay with human CCR8 [2] was determined as 0.21 nM.

B7: h10A11 (IGKV2-40/IGHV3-15 T94R) (antibody, V domains shown)
VH: B1 VH
VL: B2 VL with S7T, V109L
In the case of B7, the “IC50 (nM), Ca2+ influx by 200 nM hCCL1” value with human CCR8 [1] amounted to 0.3 nM.

B8: h10A11 (IGKV1-16/IGHV3-15 T94R) (antibody, V domains shown)
VH: B1 VH
VL: B3 VL with Y41F, L51S
Consider B8, for which, in the assay with human CCR8 [1], the “IC50 (nM), Ca2+ influx by 200 nM hCCL1” value turned out to be 0.7 nM.

B9: h10A11 (IGKV1-39/IGHV3-15 T94R) (antibody, V domains shown)
VH: B1 VH
VL: B3 VL
On to B9, for which the “IC50 (nM), Ca2+ influx by 200 nM hCCL1” value with human CCR8 [1] was 0.2 nM.

B10: h10A11 IGKV3-20 N53Q, N28K/IGHV3-15 T94R (antibody, V domains shown)
VH: B1 VH
VL: B1 VL with N33K, N58Q
In the case of B10, the “IC50 (nM), Ca2+ influx by 200 nM hCCL1” value with human CCR8 [2] is 0.29 nM.

B11: h10A11 (IGKV2-40/IGHV3-73) (antibody, V domains shown)
VH: B1 VH with A10G, K13Q, R19K, T28A, S30N, P41S, L81A
VL: B2 VL with S7T, V109L
Take B11: the “IC50 (nM), Ca2+ influx by 200 nM hCCL1” value with human CCR8 [1] was 0.21 nM.

B12: 27G1 (antibody, V domains shown)
VH: EVQLVESGGRLVQPKGSLKLSCAASGFAFNTYAMYWIRQAPGKGLEWVARIRSKSNNYATYYADSVKDRFTISRDDSQSMLYLQMNNLKTEDTAMYYCVRARFYYSDYGYAMDYWGQGTSVTVSS
VL: DIVMTQAAPSVPVTPGESVSISCRSSKSLLHSNGNTYLYWFLQRPGQSPQLLIYRMSNLASGVPDRFSGSGSGTAFTLRISRVEAEDVGVYYCMQHLEYPLTFGAGTKLELKR
notes: mouse hybridoma antibody
For B12, the binding result with human CCR4 was “no binding”; with N-ter hCCR4-hCCR8 it was “no binding”; with mouse CCR8, “no binding”; in the assay with hCCR8 (Y17A), “no binding”; with loop2 hCCR4-hCCR8, “binds”; with loop1 hCCR4-hCCR8 [3] it was “binds”. The “Neutralizing Activity IC50 (nM), Ca2+ influx by 100 nM hCCL1” value (“Neutralizing Activity IC50 (nM)” below) with human CCR8 [4] was found to be 0.09 nM.

B13: 8F7 (antibody, V domains shown)
VH: EVQLVESGGRLVQPKRSLKLSCAASGFTFNPYAMYWIRQAPGQGLEWVARIRSKSNNYATYYADSVKDRFTISRDDSQSMLYLQMNNLKTEDTAMYYCVRGHQGTMDYWGQGTSVTVSS
VL: B12 VL with I53T, L101F, A105G, L111I
notes: mouse hybridoma antibody
For the molecule B13, the binding result with human CCR4 is reported as “no binding”; with N-ter hCCR4-hCCR8 it was “no binding”; with mouse CCR8, “no binding”; with hCCR8 (Y17A), “no binding”; in the assay with loop1 hCCR4-hCCR8 [5], “no binding”; with loop2 hCCR4-hCCR8, “binds”. In addition, the “Neutralizing Activity IC50 (nM)” value with human CCR8 [4] amounted to 1.56 nM. In addition, the “IC50 (nM), Ca2+ influx by 200 nM hCCL1” value in the assay with human CCR8 [6] was determined as 3.03 nM.

B14: 10A11 (antibody, V domains shown)
VH: B12 VH with M34L
VL: B12 VL
notes: mouse hybridoma antibody; also called m10A11; clone No. 10A11
In the case of B14, the binding result with human CCR4 is reported as “no binding”; with N-ter hCCR4-hCCR8, “no binding”; with mouse CCR8, “no binding”; in the assay with hCCR8 (Y17A), “no binding”; in the assay with loop2 hCCR4-hCCR8 it was “binds”; with loop1 hCCR4-hCCR8 [3] it was “binds”. Also, the “Neutralizing Activity IC50 (nM)” value with human CCR8 [4] was determined as 0.08 nM. The “IC50 (nM), Ca2+ influx by 200 nM hCCL1” value in the assay with human CCR8 [6] and with human CCR8 [1] was 0.23 nM throughout.

B15: 2C7 (antibody, V domains shown)
VH: QVQLKQSGPSLVQPSQSLSITCTVSGFSLTAYGVHWIRQSPGKGQEWLGVIWRGGSTDYNAAFMSRLTITKDNSKSQVFFKMNSLQADDTAIYYCAKKGGSYAMDYWGQGTSVTVSS
VL: DVVLTQTPLSLPVSLGGQASISCRSSQSLVHSNGNTYLHWYLQKPGQSPKLLIYKVSNRFSGVPDRFSGSGSGTDFTLKISRVEAEDLGVYFCSQSTQVPLTFGAGTKLELKR
notes: mouse hybridoma antibody
For B15, the binding result with human CCR4 was “no binding”; with N-ter hCCR4-hCCR8, “no binding”; with mouse CCR8, “no binding”; with hCCR8 (Y17A), “no binding”; with loop1 hCCR4-hCCR8 [5] it was “no binding”; with loop2 hCCR4-hCCR8, “binds”. In addition, the “Neutralizing Activity IC50 (nM)” value in the assay with human CCR8 [4] turned out to be 0.4 nM. The “IC50 (nM), Ca2+ influx by 200 nM hCCL1” value in the assay with human CCR8 [6] is 1.19 nM.

B16: 2-7B (antibody, V domains shown)
VH: EVQLVESDGGLVQPGRSLKLSCAASGFTFSDYYMAWVRQAPTKGLEWVATITYDVYSTYYRDSVKGRFTISRDNAKSTLYLQMDSLRSEDTATYYCARHGGDGYNSGNWFAYWGQGTLVTVSS
VL: DIVLTQSPALAVSLGQRATISCRASQSVSISRYNIMHWYQQKPGQQPKLLIYRASNLASGIPARFSGSGSGTDFTLTINPVQADDIATYYCQQSRESPPTFGGGTKLELKR
B16: the “IC50 (nM), Ca2+ influx by 200 nM hCCL1” value with human CCR8 [6] turned out to be 0.23 nM.
